In publication PMC13233820 (2026):

Assays:
yeast Smt3 (Smt3-6xHis) [1] = target: T1, yeast Smt3 (Smt3-6xHis) (S. cerevisiae, UniProt Q12306 1-101 = SUMO, U-[13C,15N] labelled in the NMR experiments); assay: ITC; Smt3 150 uM
T1 chain: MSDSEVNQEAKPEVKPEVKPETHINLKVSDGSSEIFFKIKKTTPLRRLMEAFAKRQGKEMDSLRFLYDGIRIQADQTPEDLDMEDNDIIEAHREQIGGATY

yeast Smt3 (Smt3-6xHis) [2] = target: T1, yeast Smt3 (Smt3-6xHis); assay: ITC; Smt3 300 uM

Kd (yeast Smt3 (Smt3-6xHis) [1]): 30.2 µM
Kd (yeast Smt3 (Smt3-6xHis) [2]): 15.3 µM
Binder: ENDIIMVSTDE [synthetic Mre11-SIM3 peptide, wild type]
